± gives the half width of the 95% confidence interval.
Columns and labels:
[1] = folding stability dG unfold from trypsin proteolysis; higher = more stable
Procedure, shortened: (§1)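 Only designs with AlphaFold2 dimer inter-PAE above 15 were retained; each was a mini-protein under 80 residues with no cysteine, in a PA-tagged cDNA display construct. After digestion with trypsin and chymotrypsin and sequencing, K50 was inferred by Bayesian fitting of counts, and unfolding free energy was derived per protease or combined against a sequence-predicted unfolded-state K50 and a shared folded-state K50.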

[2] = folding stability dG unfold from chymotrypsin proteolysis; higher = more stable
Procedure, shortened: as §1

[3] = folding stability dG unfold (combined trypsin and chymotrypsin); higher = more stable
Procedure, shortened: as §1

| Sequence | folding stability dG unfold [1] [kcal/mol] | folding stability dG unfold [2] [kcal/mol] | folding stability dG unfold [3] [kcal/mol] |
| --- | --- | --- | --- |
| SAGMLVRVTLKYPDGKTIKIPFPYAKILSEETSNNETTFTIDSPESADKAVEAIKKEYPDIEVKVEPLESAG [r5_453_JUSTAS] | 1.67 ± 0.022 | 2.46 ± 0.035 | 2.23 ± 0.058 |
| SAGGSANGKRVEVPITIFFYRRDPEDGKWEPIFPFEIPIRIPVPPGAEVTIEIEFTGNMFRITIEVSAGGSA [r15_537_TrROS] | 3.19 ± 0.11 | 4.53 ± 0.094 | 4.09 ± 0.13 |
| SALWVIKDTIKPPNGKKRKISIAIPNDGLYVWFNGGSFPIPLKEIKKIMENFPGYQIDDIEIMPLDELKSAG [r14_336_TrROS] | 0.798 ± 0.19 | -0.15 ± 0.53 | 0.448 ± 0.32 |
| SAGGSGRQMVRNIVRHALDQQQQHGKPIDKIYIFGPPNMRKEIKKELEEEGLPPGVKITIVPAEDMQSAGGS [r16_164_TrROS] | 0.761 ± 0.13 | 0.101 ± 0.51 | 0.326 ± 0.37 |
| SAGGSEVKIVKIESVEIEEENGFLRIKVRATLKFYDKETGELVEEKEVELEVTLKNGKKLTFKIKASAGGSA [r2_271_TrROS_Hall] | 3 ± 0.23 | 3.12 ± 0.086 | 3.12 ± 0.58 |
| SAGGSAVILIPIPPDDPNFWEMIKDFQEEGKPVIIRNPEGEWMVFKPNGPVKPVDSPEQLLEAGITSAGGSA [r15_94_TrROS] | 1.03 ± 0.074 | 0.994 ± 0.16 | 1.04 ± 0.18 |
| SAGKISSIDISPFKLPDGSYPYLLRVSFPDLGTEVDFIFPAKPSDAINFAKELRKSLPNIPLTFSNISSAGG [r19_317_TrMRF] | 1.94 ± 0.05 | 1.89 ± 0.11 | 1.87 ± 0.11 |
| SAGGSAGGKKIKIEIIYDKENNKLYIYVVDENTKKVYRYEFNKNGKLIKVEPVKEVKPGEVIPLSAGGSAGG [r6_148_TrROS_Hall] | 1.96 ± 0.15 | 2.49 ± 0.16 | 2.32 ± 0.22 |
| SAGGSAGGMILIKNEDGSLYLIEVETVTVTVKVKLPEELKELLKGIKPGDTITVTVTKVRIVKLSAGGSAGG [r6_907_TrROS_Hall] | 3.79 ± 0.15 | 4.58 ± 0.11 | 4.32 ± 0.17 |
| SAGGSAIKLPPGEEYTIIMRNPQNGRPFKVPIKRVDPGQIQIEIENPKNGEKQKFTIPANDIEIVKSAGGSA [r15_381_TrROS] | 0.0718 ± 0.074 | -0.896 ± 0.8 | -0.194 ± 0.16 |
| SAMPIPNKNVVIRAKRSPDGTWDLTITVDNEKLGSKKAKTEEELKALVEEIAKEIAEKLGPGNVTVVEESAG [r14_791_JUSTAS] | 2.74 ± 0.28 | 2.54 ± 0.15 | 2.69 ± 0.22 |
| SAGGSAGGSAGGLLKLKLKLKYEFTFKDENGNTYKVEKELTLVLELPPINETGKKNLVLSAGGSAGGSAGGS [r10_168_TrMRF] | 2.07 ± 0.036 | 3.66 ± 0.063 | 3.12 ± 0.13 |
| SAGGSAGGSAGMVIVDPERGYIYIPFPEDIEPEEFIEANKIPEFDIEVLEIGENIPVIKLSAGGSAGGSAGG [r17_323_TrMRF] | 0.357 ± 0.047 | -0.0485 ± 0.12 | 0.209 ± 0.096 |
| SAGGSAGGSGGFLVLEFEIEVDPEDPEKALAVVEALVESLGFEPVLIEVEEDENRVRVRVLLGSAGGSAGGS [r12_731_TrMRF] | 2.93 ± 0.099 | 3.11 ± 0.13 | 3.1 ± 0.13 |
| SAGGSAIKIIPNGDGIYIKIWFNNQPHPIPIESPEDAEEQVKSILDKFQKRNGMDIPEDMKVEIYPSAGGSA [r15_496_TrROS] | 0.419 ± 0.054 | 1.12 ± 0.14 | 0.994 ± 0.2 |
| MNIPLKEILDKAKAEGKPVVFPDGTKTLSFEPGGKATIEKPVEVPGKPGVPLETKTYTIDINEDGSVTVNDS [r1_284_JUSTAS] | -0.875 ± 0.17 | -0.279 ± 0.15 | -0.373 ± 0.095 |
| SAMTVEIEFPPELEVEELVEKLKEAFPGEEIEVEAERDPVEPRLRIRVTVDDPELAEEVEKKLRELVEESAG [r14_443_TrMRF] | 3.34 ± 0.15 | 2.21 ± 0.1 | 3 ± 0.12 |
| SAGGSMGSKKVGEIELEVEIGDEKVKVKVTLYETESPDDSVSLTLDVDVEHPNGKKISKELFEKLFSAGGSA [r2_363_TrMRF] | 1.15 ± 0.064 | 2.14 ± 0.033 | 1.84 ± 0.15 |
| SAGGPNIELEFETYRDPDGMLVIKFHIRIKFGNKPVYIFVEGVIPPDGEAQIEDAYIFDADNGEWIPISAGG [r13_932_TrROS] | 2.9 ± 0.25 | 4.6 ± 0.15 | 4.26 ± 0.29 |
| SAGMSFTVTTVGSPGPTTPRVVIEPPDRVVVISRLPDGSYEVRYYDPSPPVELERRRLAPEEAIAELLSAGG [r19_188_JUSTAS] | 0.385 ± 0.095 | 0.647 ± 0.098 | 0.575 ± 0.077 |
| SAGGSAAIPLEFELPNGERVTVYYDPETGLFTVEVEVRFGNEKGEPPEVRFRFEVDSLVDLLDFLASAGGSA [r15_31_TrMRF] | 2.51 ± 0.13 | 3.88 ± 0.039 | 3.49 ± 0.093 |
